Biological target: SARS-CoV-2 Omicron (B.1.1.529) RBD (SARS-CoV-2 Omicron B.1.1.529 (BA.1), strain)

B1: BD55-3304 (antibody, V domains shown)
VH: QVQLVESGGGVVQPERSLRLSCAASGFIFSNYGMHWVRQAPGKGLEWVALIWYDGSNRYYADSVKGRFTISRDNSRNTLYLQMNSLRAEDTAMYYCAKSALRGYSGYDFFSRVSDEYYFDNWGQGTLVTVSS
VL: DIVMTQSPDSLAVSLGERATISCKSSQSVLYSSNNQNYLAWYQQKPGQPPKLLIKWASTRESGVPDRFSGSGSGTDFTLTITSLQAEDVAVYYCQQYFDTPHFGQGTKLEIK
binding result: binds

B2: DH1045 (antibody, V domains shown)
VH: QLQLQESGPGLVKPSETLSLTCTVSGGSISSSGYYWGWIRQPPGKGLEWIGTIYYGGSTYYSPSLKSRVTISVDTSKNQFSLKLSSVTAADTAVYYCASQQWLRGNFDYWGQGTLVTVSS
VL: NFMLTQPHSVSESPGKTVTISCTGSSGSIASNYVQWYQQRPGSAPTTVIYEDNQRPSGVPDRFSGSIDSSSNSASLTISGLKTEDEADYYCQSYDSSTYWVFGGGTKLTVL
binding result: binds

Reference: article PMC8866119 (Nature, 2021)
